Data published in article PMC2367452, “HOXA13 Is Essential for Placental Vascular Patterning and Labyrinth Endothelial Specification”.

What was measured:
[1] = molecular target: T1, HOXA13 DNA-binding domain peptide (A13-DBD) (UniProt Q62424 320-386); experiment: fluorescence anisotropy; abstract gives range 27-42 nM; FP: 1 nM fluorescein-labeled hairpin, 0-200 nM HOXA13-DBD, 15 C, buffer per ref 71 (not given); EMSA: Promega Gel Shift Binding System; conditions: protein: recombinant, label: fluorescein, CCCCCCC-region loop
[2] = molecular target: T1, HOXA13 DNA-binding domain peptide …; experiment: fluorescence anisotropy; legend says affinity ablated; titrated only to 200 nM; FP: 1 nM fluorescein-labeled hairpin, 0-200 nM HOXA13-DBD, 15 C, buffer per ref 71 (not given); EMSA: Promega Gel Shift Binding System; conditions: protein: recombinant, label: fluorescein, 14 bp stem, CCCCC loop

T1 sequence (Q62424 320-386): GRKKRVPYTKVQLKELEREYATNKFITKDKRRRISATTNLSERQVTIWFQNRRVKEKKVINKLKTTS

Binder | Kd [1] [nM] | Kd [2] [nM]
CTTATTATTAAAGGCCCCCCCTTTAATAATAAG (structured_DNA) [Foxf1 hairpin] | 48 ± 4 | –
TGACTGACTGACTGCCCCCCAGTCAGTCAGTCA (structured_DNA) [TGAC control hairpin] | – | 250 ± 22
